In patent US20240239881A1 (Innovent, published 2024):
Residue numbers refer to the chain shown, from its start.

Tests used:
[1] = molecular target: T1, Rhesus ANG2 (rhesus, UniProt F6QXG0 19-496); test: SPR, Biacore T200, antibody captured on Protein G chip, experiment 1
T1 sequence: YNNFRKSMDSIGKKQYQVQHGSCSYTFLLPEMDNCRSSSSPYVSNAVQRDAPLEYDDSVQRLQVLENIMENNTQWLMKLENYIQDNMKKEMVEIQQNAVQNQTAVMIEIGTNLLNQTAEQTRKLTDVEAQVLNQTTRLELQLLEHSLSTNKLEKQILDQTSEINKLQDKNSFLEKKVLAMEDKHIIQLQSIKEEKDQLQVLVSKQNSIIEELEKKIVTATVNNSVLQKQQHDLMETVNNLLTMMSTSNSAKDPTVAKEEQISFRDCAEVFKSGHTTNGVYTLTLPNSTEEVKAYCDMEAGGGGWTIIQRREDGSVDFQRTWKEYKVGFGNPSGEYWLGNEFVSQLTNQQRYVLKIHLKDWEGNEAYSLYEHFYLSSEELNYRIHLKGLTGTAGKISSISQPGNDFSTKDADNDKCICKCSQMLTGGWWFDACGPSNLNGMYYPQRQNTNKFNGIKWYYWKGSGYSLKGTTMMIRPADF
Protocol: (§1) The antibody was diluted to 1 μg/mL and was captured onto channel 2 for 30 s, and channel 1 was the blank control channel. The gradient-diluted Human ANG2, Rhesus ANG2, Rabbit ANG2, Rat ANG2 and Mouse ANG2 were sequentially injected into channels 1 and 2 of the chip, from low to high concentrations (0-32 nM), at a flow rate of 30 μL/min, with one concentration per cycle, and with 180 s association time and 1200 s dissociation time at 25° C. Finally, the chip was regenerated using Glycine pH 1.5 at 30 μL/min for 30 s. The affinity assay was repeated three times.

[2] = molecular target: T2, Rabbit ANG2 (rabbit, UniProt G1T9B3 19-496); test: as above
T2 sequence: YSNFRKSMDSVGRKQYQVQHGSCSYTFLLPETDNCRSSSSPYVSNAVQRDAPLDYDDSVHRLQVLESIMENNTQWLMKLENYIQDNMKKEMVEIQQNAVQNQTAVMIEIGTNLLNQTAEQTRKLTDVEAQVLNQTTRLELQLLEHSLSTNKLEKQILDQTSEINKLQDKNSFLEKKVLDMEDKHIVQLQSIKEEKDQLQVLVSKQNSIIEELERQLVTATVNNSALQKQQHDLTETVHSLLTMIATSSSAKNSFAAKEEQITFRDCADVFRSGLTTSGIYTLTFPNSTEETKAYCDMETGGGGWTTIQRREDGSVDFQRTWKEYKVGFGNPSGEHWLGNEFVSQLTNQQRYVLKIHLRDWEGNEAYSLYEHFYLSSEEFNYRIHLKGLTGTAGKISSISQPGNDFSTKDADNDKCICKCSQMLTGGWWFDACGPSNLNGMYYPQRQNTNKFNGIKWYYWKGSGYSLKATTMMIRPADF
Protocol: as §1

[3] = molecular target: T3, human Ang2 (human, UniProt O15123 19-496, limits assumed); test: as above
T3 construct: also called hAng2; h Ang2
T3 sequence: T1 sequence with V279I, L284F, V291I, A410G, G468A
Protocol: as §1

[4] = molecular target: T4, hAng2-Fc protein (Sino Biological, Cat No.: 10691-H02H) (human, UniProt O15123 19-496); test: blocking assay by flow cytometry: antibody titrated against hAng2-Fc (2 ug/ml final); blocked binding to human Tie2 on 293-tie2 cells; anti-human IgG-PE, MFI
T4 construct: Bought fusion; also called human Ang2-Fc; human Ang2-hFc; not shown: human Fc of the bought fusion protein
T4 sequence: T1 sequence with V279I, L284F, V291I, A410G, G468A
Protocol: The ability of hz81H10.4 and the control antibody Nesvacumab to block the binding of human Ang2-hFc to Tie2 on the cell surface was detected by flow cytometry (FACS).
The antigen hAng2-Fc protein (Sino Biological, Cat No.: 10691-H02H) was diluted to 4 μg/ml, and added to the plate wells at 50 μl/well. Antibodies (hz81H10.4 and control antibody Nesvacumab) prepared as described above were diluted at 2-fold with a total of 12 dilution points starting from the highest concentration of 800 nM, and added to the plate wells at 50 μl/well, and incubated in PBS on ice for 30 min, where the final concentration of the antigen was 2 μg/ml and the highest concentration of antibody was 400 nM. […] The cells were centrifuged at 300 g for 5 min, and after the supernatant was discarded, the cells were resuspended in the antigen-antibody mixture. The cells were incubated on ice for 30 min, and added with PBS at 100 μl/well, centrifuged at 300 g for 5 min, and washed with PBS once. A 100 μl of goat anti-human IgG-PE (Southern Biotech, Cat. No. 2040-09) diluted at 1:200 was added to each well and placed in an ice bath for 20 min. PBS was added at 100 μl/well, and the cells were centrifuged at 300 g for 5 min, and washed once with PBS. The cells were resuspended in 100 μl PBS and the fluorescence signals of the cells were detected by a flow cytometer (BD Biosciences). […]

Kd [1]: 183 pM
koff [1]: 4.87e-05 s⁻¹
kon [1]: 266000 M⁻¹ s⁻¹
Kd [2]: 518 pM
koff [2]: 0.000153 s⁻¹
kon [2]: 294000 M⁻¹ s⁻¹
Kd [3]: 69.4 pM
koff [3]: 1.74e-05 s⁻¹
kon [3]: 250000 M⁻¹ s⁻¹
IC50 [4]: 2300 pM
B1: humanized antibody hz81H10.4 (antibody, human IgG1, kappa, V domains shown)
VH: EVQLVESGGGLVKPGGSLRLSCAASGFTFSNYWMNWVRQAPGKGLEWVAEIRLKSNNYATHYAESVKGRFTISRDVSKNTVYLQMNSLKTEDTAVYYCTDTAPFAYWGQGTLVTVSS
VL: DIQMTQSPSSLSASVGDRVTITCKASQDVGTDVAWYQQKPGKAPKLLIYWASTRHTGVPSRFSGSGSGTDFTLTISSLQPEDFATYYCQQYSSYPLTFGGGTKVEIKR
notes: also called IBI335
